Laboratory results taken from PMC11694665, “Open and closed structures of L-arginine oxidase by cryo-electron microscopy and X-ray crystallography” (Journal of Biochemistry, 2024).

Key:
[1] = target: T1, PT-AROD (L-arginine oxidase from Pseudomonas sp. TPU 7192) (Pseudomonas putida, UniProt A0A177SH44); experiment: cryo-EM ([…] Å) and X-ray crystallography ([…] Å); assay type: binding; conditions: one FAD per monomer; copurified, 0.2 μM FAD in purification buffers
T1 construct: gene AYO28_23740; full length, recombinant in E. coli BL21(DE3) from pET-15b; homooctamer (D4), one FAD per monomer; 4632 residues modelled in octamer (579 per chain)
T1 sequence (A0A177SH44 1-589): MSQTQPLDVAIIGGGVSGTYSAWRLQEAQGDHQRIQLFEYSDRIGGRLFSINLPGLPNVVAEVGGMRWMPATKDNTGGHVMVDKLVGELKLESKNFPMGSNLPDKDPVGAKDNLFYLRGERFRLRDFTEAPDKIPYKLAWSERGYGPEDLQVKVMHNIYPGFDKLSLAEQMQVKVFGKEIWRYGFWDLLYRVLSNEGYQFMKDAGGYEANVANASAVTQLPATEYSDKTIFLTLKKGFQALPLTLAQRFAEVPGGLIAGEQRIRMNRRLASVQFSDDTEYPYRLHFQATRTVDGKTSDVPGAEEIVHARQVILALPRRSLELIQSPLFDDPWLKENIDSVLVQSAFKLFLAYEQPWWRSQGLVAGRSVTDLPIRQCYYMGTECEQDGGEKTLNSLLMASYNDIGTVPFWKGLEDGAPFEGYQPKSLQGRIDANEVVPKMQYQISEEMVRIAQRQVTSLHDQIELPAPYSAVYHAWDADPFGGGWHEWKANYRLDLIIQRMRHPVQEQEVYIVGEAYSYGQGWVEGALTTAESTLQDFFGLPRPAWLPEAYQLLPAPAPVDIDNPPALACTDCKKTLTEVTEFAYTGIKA

[2] = target: L-arginine oxidase from Pseudomonas sp. TPU 7192 (Pseudomonas sp. TPU 7192); experiment: mass photometry; 0.1 mg/ml in SEC buffer (20 mM HEPES pH 8.0, 50 mM NaCl), on a glass coverslip, 60 s, three repeats; molecular weight in solution
[3] = target: L-arginine oxidase from Pseudomonas sp. TPU 7192 (Pseudomonas sp. TPU 7192); experiment: cryo-EM structure; single-particle analysis, 2.5 mg/ml protein in 20 mM HEPES (pH 8.0), 50 mM NaCl, with bound FAD; D4 symmetry; octamer
[4] = target: L-arginine oxidase from Pseudomonas sp. TPU 7192 (Pseudomonas sp. TPU 7192); experiment: crystal structure; crystals grown at 20°C from 10 mg/ml protein, 20% w/v PEG 3350, 0.2 M potassium citrate tribasic (pH 8.3); four molecules in the asymmetric unit, octamer made by a symmetry mate
[5] = tested on: T2, N=C(N)NCCC[C@H](N)C(=O)O; experiment: peroxidase-coupled colourimetric assay (4-aminoantipyrine/TOOS), non-linear regression; assay type: biochemical, Pseudomonas putida; conditions: 100 mM Tris-HCl pH 7.0, 37 °C, substrate 0-2.5 mM
T2 construct: full length, recombinant in E. coli BL21(DE3) from pET-15b; homooctamer (D4), one FAD per monomer; 4632 residues modelled in octamer (579 per chain)
Source text: (§1) peroxidase-coupled colourimetric assay (4-aminoantipyrine/TOOS), non-linear regression on PT-AROD (L-arginine oxidase from Pseudomonas sp. TPU 7192)

[6] = tested on: T3, NCCCC[C@H](N)C(=O)O; experiment: as above; assay type: biochemical, Pseudomonas putida; conditions: 100 mM Tris-HCl pH 7.0, 37 °C, substrate 0-10 mM
T3 construct: full length, recombinant in E. coli BL21(DE3) from pET-15b; homooctamer (D4), one FAD per monomer; 4632 residues modelled in octamer (579 per chain)
Source text: as §1

[7] = substrate: NCCCC[C@H](N)C(=O)O; experiment: as above; assay type: biochemical, Pseudomonas putida; conditions: 100 mM Tris-HCl pH 7.0, 37 °C, substrate 0-10 mM
Source text: as §1

[8] = substrate: N=C(N)NCCC[C@H](N)C(=O)O; experiment: as above; assay type: biochemical, Pseudomonas putida; conditions: 100 mM Tris-HCl pH 7.0, 37 °C, substrate 0-2.5 mM
Source text: as §1

Cc1cc2nc3c(=O)[nH]c(=O)nc-3n(C[C@H](O)[C@H](O)[C@H](O)COP(=O)(O)OP(=O)(O)OC[C@H]3O[C@@H](n4cnc5c(N)ncnc54)[C@H](O)[C@@H]3O)c2cc1C [FAD]
cryo-EM (2.3 Å) and X-ray crystallography (3.4 Å) [1]: We obtained a cryo-EM map of PT-AROD in complex with FAD

L-arginine oxidase from Pseudomonas sp. TPU 7192 (enzyme)
stoichiometry N [2]: 8
stoichiometry N [3]: 8
stoichiometry N [4]: 8

PT-AROD (L-arginine oxidase from Pseudomonas sp. TPU 7192) (Pseudomonas putida; E486A)
Km [5]: 190 µM
kcat [5]: 3.5 s⁻¹
kcat/Km [5]: 18000 M⁻¹ s⁻¹
Km [6]: 1200 µM
kcat [6]: 1.1 s⁻¹
kcat/Km [6]: 920 M⁻¹ s⁻¹

PT-AROD (L-arginine oxidase from Pseudomonas sp. TPU 7192) (Pseudomonas putida; Q343E)
Km [5]: 1700 µM
kcat [5]: 10.4 s⁻¹
kcat/Km [5]: 6100 M⁻¹ s⁻¹
Km [6]: 6900 µM
kcat [6]: 0.5 s⁻¹
kcat/Km [6]: 72 M⁻¹ s⁻¹

B1: PT-AROD (L-arginine oxidase from Pseudomonas sp. TPU 7192) (Pseudomonas putida) (protein)
chain: T1 sequence (A0A177SH44 1-589)
notes: full length, recombinant in E. coli BL21(DE3) from pET-15b; homooctamer (D4), one FAD per monomer; 4632 residues modelled in octamer (579 per chain)
Km [7]: 20000 µM
kcat [7]: 2.7 s⁻¹
kcat/Km [7]: 140 M⁻¹ s⁻¹
Km [8]: 480 µM
kcat [8]: 6.2 s⁻¹
kcat/Km [8]: 13000 M⁻¹ s⁻¹
